Test results as given in the RNAGym collection of RNA variant scans (doi:10.1073/pnas.2313332121).
This sample holds only a part of the variants without activity.

B1: TPR 5TU (parent)
chain: GGAUCUUCUCGAUCUAACAAAAAAGACAAAUCUGCCACAAAGCUUGAGAGCAUCUUCGGAUGCAGAGGCGGCAGCCUUCGGUGGCGCGAUAGCGCCAACGUUCUCAACUAUGACACGCAAAACGCGUGCUCCGUUGAAUGGAGUUUAUCAUG

Variants of: B1
Experiment: polymerase ribozyme fitness, log enrichment relative to wild type (log ratio); higher = more active; in vitro selection for triplet polymerase activity
Procedure, shortened: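 Fitness measures genotype enrichment against wild-type enrichment on a logarithmic scale, with inverse-variance-weighted averaging of replicates. The logarithm is base 2, and genotypes were kept only with ≥10 input reads and ≥1 read per output in Illumina sequencing. The sequenced libraries came from one triplicate in vitro selection round, including frozen incubation at −7 °C, of PCR-built, transcribed mutant libraries of each subunit of a heterodimeric triplet polymerase ribozyme.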

Variant	polymerase ribozyme fitness (log ratio)
GGAUCUUCUCGAUCUAGCAAAAAAGACAAAUCUGCCACAAAGCUUGAGAGCAUCUUCGGGAGCAGAGGCGGCAGCCUUCGGUGGCGCGAUAGCGCCAACGUUCUCAACUGUGACACGUAAAACGCGUGAUCCGUUGAAUGGAGUUUAUCAUG [A17G A60G U61A A110G C118U C129A]	≤ -4.2
GGAUCUUCUCGAUCUAUCAAAAAAGACCAAACUGCCACAAAGCUUGAGAGCAUCUUCGGAUGCAGAGGCGGCAGCCUUCGGUGGCGCGAUAGCGCCAACGUUCUCAACUAUGACACGCAAAACGCGUGCUCCGUUGAAUGGAGUUUAUCAUG [A17U A28C U31A]	-3.71
GGAUCUUCUCGAUCUAUCAAAUAAGACAAAUCUGUCACAAAGCUUGAGAGUAUCUUCGGAUGCAGAGGCGGCAGCCUUCGGUUGCGCGAUAGCGCCAACGUUCUCAACUAUGACACGCAAAACGCGUGCUCCGUUGAAUGGAGUUUAUCAUG [A17U A22U C35U C51U G83U]	-1.87
GGAUCUUCUCGAUCUAUCAAAAAUGACAAAUCUGCCACAAAGCUUGAGAGCAUCUGCGGAUGCAGAGGCGGCAGCCUUCGGUGGCGCGAUAGCGCCAACGUUCUCAACUAUGACACGCAAAACGCGUGCUCCGUUGAAUGGAGUUUAUCAUG [A17U A24U U56G]	-0.773
GGAUCUUCUCGAUCUAGCAAAAAAGACAAAUCUGCGACAAAGCUUGAGAGCAUCUUCGGAUGCAGAGGCGGCAGCCUUCGGUCGCGCGAUAGCGCCAAUGUUCGCAACUAUGACACGCAAAACGUGUGCUCCGUUGAAUGGAGUCUCUCAUG [A17G C36G G83C C99U U104G C125U U145C A147C]	≤ -4.2
GGAUCUUCUCGAUCUAGCAAAAAAGACAAAUUUGGCACAAAGCUUGAGAGCAUCUUCGGAUCCAGAGGCGGCAGACUUCGGUGGCGCGAUAGCGCCAACGUUCUCAACUAUGACACGCAAAACGCGUGCUCCGUUGAAUGGAGUUUAUCAUG [A17G C32U C35G G62C C75A]	≤ -4.2
GGAUCUUCUCGAUCUAUCAAAAACGACAAAUAUGCCACAAAGCUUGAGAGCAUCUUCGGAUGCAGAGGCGGCAGCCUUCGGUGGCGCGAUAGCGCCAACAUUCUCAACUAUGACACGCAAAACGCGUGCUCCGUUGAAUGGAGUUUAUCAUG [A17U A24C C32A G100A]	≤ -4.2
GGAUCUUCUCGAUCUAUCAAAAUAGACGAAUCUGCCACAAAGCUUGAGAGCAUCAUCGGAUGCAGAGGCGGCAGCCUUCGGUGACGCGAUAGCGCCAACGUUCUCAACUAUGACACGCAAAACGCGUGCUCCGUUGAAUGGAGUUUAUCAUG [A17U A23U A28G U55A G84A]	≤ -4.2
GGAUCUUCUCGAUCUAUCAAAACAGACAAAUCUGCCCCAACGCUUGAGAGCAUCUUCGGAUGCAGAGGCGGCAGCCUUCGGUGGCGCGAUAGCGCAAACGUUCUCAACUAUGACACGCAAAACUCGUGCUCCGUUGAAUGGAGUUUAUCAUG [A17U A23C A37C A41C C96A G124U]	≤ -4.2
GGAUCUUCUCGAUCUAGCAAAAAAGACAAAUCUGCCACAAAGCUUGAGAGCAUCUUUGGAUGCAGAGGCGGCAGCCUUCGGUGGCGCGAUAGCCCCAACGUUCUCAACUAUGACACGCAAAACGCGUGCUCCGUUGAACGGAGAUUAUCAUG [A17G C57U G94C U139C U144A]	≤ -4.2
GGAUCUUCUCGAUCUAGCAAAAAAGACAAAUCUGCCACAAAGCUUGAGAGCAUCUUCGGAUGCAGAGGCGGCAGCCUUCGGUGGCGCGAUAGGGCCAACGUUCUCAAGUAUGACACGCAAAACGCGUGCUCCGUUGAAUGGAGUUUAUCAUG [A17G C93G C108G]	-4.11
GGAUCUUCUCGAUCUAUCAGAAAAGACAAAUCUGCCACACAGCUUGAGAGCAUCUUCGGAUGCAGAGGCGGCAGCCUUCGGUGGCGCGAUAGCGCCAACGUUCUCAACUAUGACACGCAAAACGCUUGCUCCGUUGAAUGGAGUUUAUCAUG [A17U A20G A40C G126U]	-0.583
GGAUCUUCUCGAUCUAUCAAAAAUGACAAAUCUGCCACAAAGCUUGAGAGCAUCUUCGGAUGCAGAGGCGGCAGCCUUCGGUGGCGCGAUAGCGCCAACGUUCUCAACUAUGACACGCAAAACGCGUGCUCCGUUGAAUGGAGUUUAUCAUG [A17U A24U]	0.106
GGAUCUUCUCGAUCUAUCAAGAAAGACAAAUCUGCCACAGAGCUUGAGAGCAUCAUCGGGUGCAGAGGCGGCAGCCUUCGGUGGCGCGAUAGCGACAACGUUCUCAACUAUGACACGCAAAACGCGUGCUCCGUUGAAUGGAGUUCAUCAUG [A17U A21G A40G U55A A60G C95A U146C]	-2.4
GGAUCUUCUCGAUCUAUCAAAAAAGUCAAAUCUGCCACAAAGCUUGCGCGCAUCUUCGGAUGCAGAGGCGGCAGCCUUCGGUCGGGCGAUAGCGCCAACGUUCUCAACUAUGACACGCAAAACGCGUGCUCCGUUGAAUGGAGUUUAUCAUG [A17U A26U A47C A49C G83C C85G]	≤ -4.2
GGAUCUUCUCGAUCUAGCAAAAAAGACAAAUCUGUCACAAAGCUUGAGAGCAUCUUCGGAUGCAGAGGCGGCAGCCUUCGGUGGGGCGAUAGCGCCACCGUUCUCAACUAUGACACGCAAUAAGCGUGCUCCGUUGAAUGGAGUUUAUCAUG [A17G C35U C85G A98C A121U C123A]	-1.35
GGAUCUUCUCGAUCUAGCAAAAAAGACAAAUCUGCUACAAAGCUUGAGAGCAUCUUCGGAUGCAGAGGCGGCAGCCUUCGGUGGCGCGAUAGCGCCAACGUUCUCAACUAUGACACGCAAAACGCGUGCUCCGUUGAAUGGAGUUUAUCAUG [A17G C36U]	-3.9
GGAUCUUCUCGAUCUAUCAAAUAAGGCAAAUCUGCGACAAAGCUUGAGAGCAUCUUCGGAUGCAGACGCGGCAGCCUUCGGUGGCGCGAUAGCGACAACGUUCUCAACUAUGACACGCAAAACGCGUGCUCCGUUGAAUGGAGUUUAUCAUG [A17U A22U A26G C36G G67C C95A]	≤ -4.2
GGAUCUUCUCGAUCUAGCAAAAAAGACAAAUCUGCCACAAAGCUUGAGAGCAUCUUCGGAUUCAGAGGCGGCAGCCUUCGGUGGCGUGAUAGCGCCAACGUUCUCAACUAUGACACGCAAAGCGCGGGCUCGGUUGAAUGGAGUUUAUCAUG [A17G G62U C87U A122G U127G C132G]	≤ -4.2
